Test results published in a protein production outcome set (Wang et al. 2014).

assay: label from the status in PepcDB records
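Further: failed if final PepcDB status was selected cloned or expressed and not failed if soluble or beyond.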

Protein production, failed:
MSYSVMFALLLLTPLLFSLLCFACRKRRLSATRTVTVLHSLGITLLLILALWVVQTAADAGEIFAAGLWLHIDGLGGLFLAILGVIGFLTGIYSIGYMRHEVAHGELSPVTLCDYYGFFHLFLFTMLLVVTSNNLIVMWAAIEATTLSSAFLVGIYGQRSSLEAAWKYIIICTVGVAFGLFGTVLVYANAASVMPQAEMAIFWSEVLKQSSLLDPTLMLLAFVFLLIGFGTKTGLFPMHAWLPDAHSEAPSPVSALLSAVLLNCALLVLIRYYIIICQAIGSDFPNRLLLIFGMLSVAVAAFFILVQRDIKRLLAYSSVENMGLVAVELGIGGPLGIFAALLHILNHSLAKTLLFCGSGNVLLKYGTRDLNVVCGMLKIMPFTAVLFGGGALALAGMPPFNIFLSEFMTITAGLARNHLLIIVLLLLLLTLVLAGLVRMAARVLMAKPPQAVNRGDLGWLTTSPMVILLVMMLAMGTHIPQPVIRILAGASTIVLSGTHDLPAQRSTWHDFLPSGTASVSEKHSER
MTAAIRRTVTFPGVSMARLKSMLGAYNGHLKQIEQRLDVQITHRGDAFYIDGDIDAVERAESLLQRLYNESETSDQISADILHLMIQGSQTDRELMDDSEQEHTGLDNVWLQTPKGRINPRGTNQKRYVQRILQSDISFGIGPAGTGKTYLAVAAAVDMLERNEIQRILLVRPAVEAGEKLGFLPGDLAQKIDPYLRPLYDALYEMLGFEKVAKLIERQVIEVAPLAYMRGRTLNHSFVILDEAQNTTPEQMKMFLTRLGFGSRAVITGDITQVDLPRGQQSGLAHALRVLEPIKEIHITRFHSRDVVRHQLVQKIVEAYEGWDSEQNRLSAEARAERKARQEALMSEHDAAADAQHQEA
MTAAPAALHDRALHLLQTIWGYPAFRGVQGEIVQQVAEGGNALVLMPTGGGKSLCYQLPSLLRPGTGIVVSPLIALMKDQVDTLRQNGVRAAFLNSTLLPHEAREVEDALLRGDLDLLYVAPERLLMPRTLDLLERAPVALFAIDEAHCVSQWGHDFRPEYQQLSVLAERFPELPRVALTATADERTRADIKSVLRLEDAPQFVSSFDRPNIQYRVGLKDSPKTQLLHFIREEHPGDAGIVYCLSRKSVEETAKWLQAQGIDALAYHAGLSSTERNNVQERFLNEEGVIVCATVAFGMGIDKPNVRFVAHLDLPKSMEGYYQETGRAGRDGLPSTAWMVYGLSDVVNVRRMLAQSDAPEEVKRVEASKLDALLTYCEAATCRRQVLLHYFGEELSEPCGNCDVCLNPPRVRDLTREAQMALSATIRTGNRFGAAHLTDVLLGRETDKVLAQGHHQLPTFGVGKEHDEKLWRSVLRQLVSLGYLSADDHFGLRATGKSRGILKEGQKLLLREDTLLPGAGKSKRDRASASRAALDSHDAPLFEALRAWRLQKAKELSLPPYTIFHDATLKTIAELRPGSHATLGTVSGVGGRKLAAYGDEVLQVVRDSSGGGQAGPENLLDSPAFDPAVRGARNNNAVLDVLGSKGELQPQPKPAHPGVLGALRELRRTLAAEQGRSLSWVFPEATIDELARKLPTRSEELKDVFGLGGQRIQAFGDRILATIRAELTGGAPSPAPSAPAALFDEAVPPAPNADLSEALRELRRELMKETGYSAFVVFTNATLEALAARQPRTLAELAEVPGLGEKRIEAYGERILDAINTVLDG
MTADEWPQRLIRFTDWSHAEATAVEHLLPVLIAQESELAQWSFLRKHPWWRLRYRPACPDSAKALDAALDELVDAGVLASWTRGIYEPEETAFGGPAAMKIAHALFHYDSRHLLDEAARQQTVSGPRLGRRELAVLLLSVAMRAAGLDWYEQGDVWARIAAERSGDEVRSPQRHRAAVHRLMTVDVSTTSRSVARGRLAPLAEWIATFEWFGQQLADLNRQGRLERGLRAVIAHHGIFHFNRLGLAAQDQHTLSTLAKEVVMGTSDNAASTQAEGAPGATVNGVNSDTIEAPSADRLRAQLIDHLVETGCVRTPRVEEAMRTVPRHLFVPNAPLEKAYGNAPVDTKFDGSGRSISCASQPDIVAMMLEQLDVQPGQKILELGAGTGFNAGLLGYLVGETGHVTTIDVDEDIVAGARGGLAAAGIHNVEVILGDGAVGHTPNAPYDRIEATVGAHGVPHAWLDQLAPGGRLLTPLRLRGSVSRSIAFENQDGAWRSVGSQMNTFMPLRRGIADDPRLFVPLDPDHTVTLVTNGDQKVDADALGDIFRQPRTEAWTDVTFRGPESAEYLELWLTCAMPNGLSRMPAKNEAIEKGLVTAPYPSSTAVFEDGTLTYLTRRPYAKKAPDGATLYEFGVIGHGPDAEALAGDVADQIRAWDQDFRALDVGFEIQPLDAAPLAPKPGRFAFDNPLNRIVIEWQ
MTADPTKNDPHGLGTASRPAAELAVGETETIPVIEETARIDKRVVEKGRVRVQTRTETTDDVLRETLRSDVVGVTRIPIDRVIAEGEVAPTIRTENGVTIIPVLEEVLVVEKRLILKEEVHIRQTTSGEAVEVPVTLRRQHAVVERVSADGHVSEIPPKEQTP
